Data published in the RNAGym collection of RNA variant scans (doi:10.1073/pnas.2313332121).

B1: TPR t1 (parent)
chain: GACCAAUCUGCCCUCAGAGCUCGAGAACAUCUUCGGAUGCAGAGGAGGCAGGCUUCGGUGGCGCGAUAGCGCCAACGUCCUCAACCUCCAAUGCAUCCCACCACAUGAUGAUGCCUGAAGAGCCUUGGUUUUUUG

Variants of: B1
Test: polymerase ribozyme fitness, log enrichment relative to wild type (log ratio); higher = more active; in vitro selection for triplet polymerase activity
Procedure, shortened: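 Mutant libraries of both subunits of a heterodimeric triplet polymerase ribozyme were PCR-built, transcribed, and selected once in triplicate, with frozen incubation at −7 °C and capture of gel-excised extended constructs on streptavidin beads before RT-PCR. Illumina sequencing of input and output libraries was filtered to genotypes with ≥10 input reads and ≥1 read per output. Fitness is the logarithm of genotype enrichment over wild-type enrichment, using inverse-variance-weighted replicate averages. The logarithm is base 2.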

Variant | polymerase ribozyme fitness (log ratio)
GACCAAUCGGCCCUCAGAGCUCGAGAACAUCUUCGGAUGCAGAGGAGGCACGCUUCGGUGUCGCGAUAGCGCCAACGUCCUCAACCUCCAAUGCAUCCCACCACAUGAUGAUGCCUGAAGAGCCUUCGUUUUUUG | -3.3
GACCAAUCGGCCCUCAGAGCUCGAGAACAUCUUCGGAUGCAGAGGAGGCAGGCUUCGGUUGUGCGAUAGCGCCAACGUCCUCAACCUCCAAUGCAUCCCACCACAUGAUGAUGCCUGAAGAGCCUUGGUUUUUUG | -1.11
GACCAAUCGGCCCUCAGAGCUCGAGAACAUCUUCGGAUGCAGAGAAGGCAGGCUUCGGUGGCGCGAUAGCGCCAACGUCCUCAACCUCCAAUGCAUCCCACCACAUGAUGAUGCCUGAAGAGCCUUGGUUUUUUG | 0.293
GACCAAUCUACCCUCAGAGCUCGAGAACCUCUUCGGAUGCAGAGGAGGCAGGCUUCGGUGGCGCGAUAGCGCCAACGUCCUCAACCUCCAAUGCAUCCCACCACAUGAUGAUGCCUGAAGAGCCUUGGUUUUUUG | -1.99
GACCAAUCGGCCCUCAGAGCUCGAGAACAUCUUCGGAUGCAGAGGAGUCAGGCUUCGGUGGCGCGAUAGCGCCAACGUCCUCAACCUCCAAUGCAUCCCACCACAUGAUGAUGCCUGAAGAGCCUUGGUUUUUUG | -1.27
GACCAAUCGGCCCUCAGAGCUCGAGAACAUCUUCGGAUGCAGAGGAGUCAGGCUUCGGUGGCGCGAUAGCGCCAACGUCCUCAACCUCCAAUCCAUCCCACCACAUGAUGCUGCCUGAAGAGCCUUGGUUUUUUG | -1.91
GACCAAUCUACCCUCAGAGCUCGAGAACAUCUUCGGUUGCAGAGGAGGCAGGCUUCGGUGGCGCGAUAGCGACAACCUCCUCAACCUCCAAUGCAUCCCACCACAUGAUGAUAUCGGAAGAGCCUUGAUUUUUUG | -7.17
GACCAAUCGGCCCUCAGAGCACGAGAACAUCUUCGGAUGCAGAGGAGGCAGGCUUCGGUGGCGCGAUAGCGCCAACGUCCUCAACCUCCAAUGCAUACCACCACAUGAUGAUGCCUGAAGAGCCUUGGUUUUUUG | -4.03
GACCAAUCGGCCCUCAGAGCUCGAGAACACCUUCGGAUGCAGAGGAGGCAGGCUUCGGUGGCGCGAUAGCGCCAACGUCCUCAACCUCCAAUGCAUCCCACCACAUGAUGAUGCCUGAACAGCCUUAGUUUUUUG | -3.41
GACCAAUCUACCCUCAGAGCUCGAGGACAUCUUCGGAUGCAGAGGAGGCAGGCUUCGGUGGCGCGAUAGCGCCAACGUCCUCAACCUCCAAUGCAUCCCACCUAAUGAUGAUGCCUGAAGCGCCUUGGUUUUUUG | -0.666
GACCAAUCGGCCCUCAGAGCUCGAGAACAUCUUCGGAUGCAGAGGAGGCAGGCUUCGGUGGCGCGAUAGCGCCAACGUCCUCAACCUCCAAUGCAGCCCACCACAUGAUGAUGCCUGAAGAGCCUUGGUUUUUUG | -0.204
GACCAAUCGGCCCUCAGAGCUCGAGAACAUCUUCGGAUGCAGAGGAGUCAGGCUUCGGUGGCGCGAUAGCGCCAACGUCCUCAACCUACAAUGCAUCCCACCACAUGAUGAUGCCUGAAGAGCCUUGGUUUUUUG | -1.04
GACCAAUCUACCCUCAGAGCUCGAGAACAUCUUCGGAUGCAGAGGAGGCAGGCUUCGGUGGCGCGAUAGCGCCAACGUCCUCAACCUCCCAUGCAUCCCACCACAUGAUGAUGCCUGAAGCGCCUUGGUUUUUUG | 0.254
GACCAAUCUACCCUCAGAGCUCGAGAACAUCUUCGGAUGCUGAGGAGGCAGGUUUCGGUGGCGCGAUAGCGCCAACGGCCUCAACCUCAAAUGCAUCCCACCACUUGAUGAUGCCUGAAUAGCCUUGGUUUUUUG | -5.97
GACCAAUCGGCCCUCAGAGCUCGAGAACAUCUUCGGAUGCAGAGAAGGUAGGCUUCGGUGGCGCGAUAGCGUCAACGUCCUCAACCUCCAAUACAUCCCACCACAUGAUGAUGCCUGAAGAGCCUUGGUUUUUUG | -1.56
GACCAAUCGGCCCUCAGAGCUCGAGAACAUCUUCGGAUGCAGAGGAGGCAGGCUUCGGUGGCGCGAUAGCGCCAACGUCCUCAACCUCCAAUGCAUCCCACCACAUGAUGAUGCCUGAAAAGCCUUGGUAUUUUG | 1.11
GACCAAUCGGCCCUCAGAGCUCGAGAACAUCUUCGGAUGCAGAGGAGGCAGGCUUCAGUGGCGCGAUAGCGCCAACGUACUCAACCUCCAAUGCAUCCCACCACAUGAUGAUGCCUGAAGAGCCUUGGUUUUUUG | -1.03
GACCAAUCGGCCCGCAGAGCUCGAGAACAUCUUCGGAUGCAGAGGAGGCAGGCUUCGGUGGCGCGAUAGCGCCAACGUCCUCAACCUCCAAUACAUCCCACCACAUGAUGAUGCCUGAAGAGCCUUGGUUUUUUG | -0.26
GACCAAUCUAACCUAAGAGCUCGAGAACAUCUUCGGAUGCAGAGGAGGCAGGCUUCGGUGGCGCGAUAGCGCCAACGUCCUCAACCUCCAAUGCAUCCCACCACAUGAUGAUGCCUGAAGAGCCUUGGUUUUUUG | -4.29
GACCAAUCGGCCCUCAGAGCUCGAGAACAUCUUCGGAUGCAGAGUAGGCAGGCUUCGGUGGCGCGAUAGCGCCAACGUCCUCAACCUCCAACGCAUCCCACCACAUGAUGAUGCCUGAAGAGCCUUGGGUUUUUG | -1.65
GACCAAUCGGCCCUCAGAGCUCGAGAACAUCUUCGGAUGCAGAGGAGGCAGGCUUCGUUGGCGCGAUAGCGCCAACGUCCUCAACCUCCAAUGCAUCCCACCACAUGAUGAAGCCUGAAAAGCCUUGGUCUUUUG | 0.977

Variant | polymerase ribozyme fitness (log ratio)
GACCAAUCGGCCCUCAGAGCUCGAGAACAUCUUCGGAUGCAGAGGAGGCAGGCUUCGGUGGCGCAAUAGCGGCAACGUCCUCAACCUCCAAUGCAUCCCACCACAUGAUGAUGCCUGAAGAAGCUUGGGUUUUUG | -5.67
GACCAAUCGGCCCUCAGAGCUCGAGAACAUCUUCGGAUGCACAGAAGGCAGGCUUCGGUGGCGCGAUAGCGCCAACGUCCUCAAGCUCCAAUGCAUCCCACCACAUGAUGAUGCCUGAAGAGCCUUGGUUUUUUG | -4.6
GACCAAUCUACCCUCAGAGCUCGAGAACAUCUUCGGAUGCAGAGGAGGCAGGCUUCGGUGGCGCGAUAGCGCCAACGUCCUCAACCUCCCAUCCAUCCCACCACAUGAUGUUGCCUGAAGAGCCUUGGUUUUUUG | -5.12
GACCAAUCGGCCCUCAGAGCUCGAGAACAUCUUCGGAUGCAGAGGAGGCAGGCUCCGGUGGCGCGAUAGCGCCAACGUCCUCAACCUCUAAUGAAUCCCACCACAUGAUGAUGCCUGAAGAGCCUAGGUUUUUUG | -1.95
GACCAAUCGGCCCUCAGAGCUCGAGAACAUCUUCGGAUGCAGAGGAGGCAGGCUUCGGUGGCGCGAUAGCGCCAACACCCUCAACCUCCAAUGCAUCACACCACAUGAUGAUCCCUGAAGAGCCUUGGUUUUUUG | -5.07
GACCAAUCGGCCCUCAGAGCUCGAGAACAUCUUCGGAUGCAGAGGAGGCAGGCAUCGGUGGCGCGAUAGCGCCAACGUCCUCAACCUCCAAUGCAUGCCACCACAUGAUGAUGCCUGAAGAGCCUUGGUUCUUUG | -4.7
GACCAAUCGGCCCUCAGAGCUCGAGAACAUCUUCGGAUGCAGAGGAGACAGGCUUCGGUGGCGCGAUAGCGCCAACGUCCUCAACCUCCAAUCCAUCCCACCACAUGAUGAUGCCUGAAGAGCCUUGGUUUUUUG | -1.01
GACCAAUCGGCCCUCAGAGCUCGAGAACAUCUUCGGAUGCAGAGGAGGCAGGCUUCGGUGGCGCGAUAGCGCCAACGUCCUCAACCUCCAAUGCAUCCCACCACAUGAUGAUACCUGAAGAGCCUUGGUUUUUUG | -0.0202
GACCAAUCUACCCUCAGAGCUCGAGAACAUCUUCGGUUGCAGAGGAGGCAGGAUUGGGUGGCGCGAUAACGCCAACGUCCUCAACCUUCAAUGCAUCCCACCACAUGAUGAUGCCUGAACAUCCUUGGUUUUUUG | -1.99
GACCAAUCUACCCUCAGUGCUCGAGAACAUCUUCGGAUGCAGAGGAGGCAGGCUUCGGUGGCGCGAUAGCGCCAACAUCCUCAACCACCAAUGCAUCCCACCACAUGAUGAUGCAUGAAGAGCCUUGGUUUUUUG | -1.44
GACCAAUCGGCCCUCAGAGCUCGAGAACAUCUUCGGAUGCAGAGGAGGCAGGCUUCGGUGGCGCGAUACCGCCAACGUCCUCAACCUCCAAUGCAUCCCACCACUUGAUGAGGCCUGAAGAGCCUUGGUUUUUUG | -4.11
GACCAAUCGGCCCUCAGAGCUCGAGAACAUCUUCGGAUGCAGAGGAGGCAGGCUUCGGUGCCGCGAUAGCGCCAACGUCCUCAACCUCCAAUGCAUCCCACAACAUGAUGAUGCCUGAAGAACCAUGGUUUUUUG | -4.92
GACCAAUCGGCCCUCAGAGCUCGAGAACAUCUUCGGAUGCAGAGGAGGCAGUCUUCGGUGGCGCGAUAGUGCCAACGUCCUCAACCUGCAAUGCAUCCCACCACAUGAUGAUGCCUGAAGAGACUUGGUUUUUUG | -0.768
GACCAAUCGGCCCUCAGAGCUCGAGAACAUCUUCGGAUGCAGAGGAGGCAGGCUUCGGUAGCGCGAUAGCGCCAACGUCCUCAACCUCCCAUGCAUCCCACCACAUGAUGAUGCCUGAAGAGUCUUGGUUUUUUG | 0.324
GACCAAUCUACCCUCAGAGCUCGAGAACAUCUUCGGAUGCAGAGGAGGCAGGCUUCGGUGGCGCGAUAGCGCCAACGUCCUCAACCUCCAAUGCUUCCCACCACAUGAUGAUGCCUGAAGAACCUUGGUUUUUUG | 0.0165
GACCAAUCGGCCCUCAGAGCUCGAGAACAUCUUCGGAUGCAGAGGAGGCAGGCUUCGGUGUCGCGAUAGCGCCAACGUCCUCAACCUCCAAUGCAUCCCACCACAUGAUGAUGCCUAAAGAGCCUUGGUUUUUUG | 1.58
GACCAAUCUACCCUCAGAGCUCGAGAUCAUCUUCGGAUGCAAAGGAGGCAGGCUUCGGUGGCGCGAUAGUGCCAACGUCCUCAACCUCCAAUGCAUCCAACCACAUGAUGAUGCCUGAAGAGCCUUGGUUUUUUG | -6.56
GACCAAUCUACCCUCAGAGCUCGAGAACCUCUUCGGAUACAGAGGAGGCAGGCUUCGGUGGCGCGAUAUCGCCAACGUCCUCAACCUCCAAUGCAUCCCACCACAUGAUGAUGCCUGAAGAGCCUUGGUUUUUUG | -2.05
GACCAAUCGGCCCUCAGAGCUCGAGAACAUCUUCGGAUGCAGAGGAGGCAGGCUUCGGUGGCGCGAUAGCUCCAACGUCCUCAACCUCCAAUGCAUCCCACCACAUGAUGAUGCCUGAAGAGCCUUGGUUUUUUG | 0.107
GACCAAUCUACCCUCAGAGCUCGAGAACAUCUUCGGAUGCAGAGGAGGCAGGCUUCGGUGGCGCGAUAGCGCCAACGUCCUCCACCUCCAAUGCAUCCCACCACAUGAUCAUGCCUGAAGAGCCUUGGUUUUAUG | -3.93
GACCAAUCUACCCUCAGAGCUCGAGAACUUCUUCGGAUGCAGAGGAGGCAGGCUUCGGUGGCGCGAUAGCGACAACGUCCUCAACCUGCAAUGCAUCCCACCACAUGAUGAUGCCGGAAGAGCCUUGGUUUUUUG | -3.97
